Measured values from patent US9061070B2, “Treating stroke and other diseases without inhibiting N-type calcium channels” (NoNO, Inc., priority 2007, dated 2015).

Target: N-type calcium channels (Mus musculus, UniProt O55017)
Test: Whole-cell patch clamp recordings of calcium currents in dorsal root ganglion neurons
Type: cell-based, Swiss mice
Conditions: 100 μM; FIG. 5A

Sequence of N-type calcium channels (O55017 whole entry): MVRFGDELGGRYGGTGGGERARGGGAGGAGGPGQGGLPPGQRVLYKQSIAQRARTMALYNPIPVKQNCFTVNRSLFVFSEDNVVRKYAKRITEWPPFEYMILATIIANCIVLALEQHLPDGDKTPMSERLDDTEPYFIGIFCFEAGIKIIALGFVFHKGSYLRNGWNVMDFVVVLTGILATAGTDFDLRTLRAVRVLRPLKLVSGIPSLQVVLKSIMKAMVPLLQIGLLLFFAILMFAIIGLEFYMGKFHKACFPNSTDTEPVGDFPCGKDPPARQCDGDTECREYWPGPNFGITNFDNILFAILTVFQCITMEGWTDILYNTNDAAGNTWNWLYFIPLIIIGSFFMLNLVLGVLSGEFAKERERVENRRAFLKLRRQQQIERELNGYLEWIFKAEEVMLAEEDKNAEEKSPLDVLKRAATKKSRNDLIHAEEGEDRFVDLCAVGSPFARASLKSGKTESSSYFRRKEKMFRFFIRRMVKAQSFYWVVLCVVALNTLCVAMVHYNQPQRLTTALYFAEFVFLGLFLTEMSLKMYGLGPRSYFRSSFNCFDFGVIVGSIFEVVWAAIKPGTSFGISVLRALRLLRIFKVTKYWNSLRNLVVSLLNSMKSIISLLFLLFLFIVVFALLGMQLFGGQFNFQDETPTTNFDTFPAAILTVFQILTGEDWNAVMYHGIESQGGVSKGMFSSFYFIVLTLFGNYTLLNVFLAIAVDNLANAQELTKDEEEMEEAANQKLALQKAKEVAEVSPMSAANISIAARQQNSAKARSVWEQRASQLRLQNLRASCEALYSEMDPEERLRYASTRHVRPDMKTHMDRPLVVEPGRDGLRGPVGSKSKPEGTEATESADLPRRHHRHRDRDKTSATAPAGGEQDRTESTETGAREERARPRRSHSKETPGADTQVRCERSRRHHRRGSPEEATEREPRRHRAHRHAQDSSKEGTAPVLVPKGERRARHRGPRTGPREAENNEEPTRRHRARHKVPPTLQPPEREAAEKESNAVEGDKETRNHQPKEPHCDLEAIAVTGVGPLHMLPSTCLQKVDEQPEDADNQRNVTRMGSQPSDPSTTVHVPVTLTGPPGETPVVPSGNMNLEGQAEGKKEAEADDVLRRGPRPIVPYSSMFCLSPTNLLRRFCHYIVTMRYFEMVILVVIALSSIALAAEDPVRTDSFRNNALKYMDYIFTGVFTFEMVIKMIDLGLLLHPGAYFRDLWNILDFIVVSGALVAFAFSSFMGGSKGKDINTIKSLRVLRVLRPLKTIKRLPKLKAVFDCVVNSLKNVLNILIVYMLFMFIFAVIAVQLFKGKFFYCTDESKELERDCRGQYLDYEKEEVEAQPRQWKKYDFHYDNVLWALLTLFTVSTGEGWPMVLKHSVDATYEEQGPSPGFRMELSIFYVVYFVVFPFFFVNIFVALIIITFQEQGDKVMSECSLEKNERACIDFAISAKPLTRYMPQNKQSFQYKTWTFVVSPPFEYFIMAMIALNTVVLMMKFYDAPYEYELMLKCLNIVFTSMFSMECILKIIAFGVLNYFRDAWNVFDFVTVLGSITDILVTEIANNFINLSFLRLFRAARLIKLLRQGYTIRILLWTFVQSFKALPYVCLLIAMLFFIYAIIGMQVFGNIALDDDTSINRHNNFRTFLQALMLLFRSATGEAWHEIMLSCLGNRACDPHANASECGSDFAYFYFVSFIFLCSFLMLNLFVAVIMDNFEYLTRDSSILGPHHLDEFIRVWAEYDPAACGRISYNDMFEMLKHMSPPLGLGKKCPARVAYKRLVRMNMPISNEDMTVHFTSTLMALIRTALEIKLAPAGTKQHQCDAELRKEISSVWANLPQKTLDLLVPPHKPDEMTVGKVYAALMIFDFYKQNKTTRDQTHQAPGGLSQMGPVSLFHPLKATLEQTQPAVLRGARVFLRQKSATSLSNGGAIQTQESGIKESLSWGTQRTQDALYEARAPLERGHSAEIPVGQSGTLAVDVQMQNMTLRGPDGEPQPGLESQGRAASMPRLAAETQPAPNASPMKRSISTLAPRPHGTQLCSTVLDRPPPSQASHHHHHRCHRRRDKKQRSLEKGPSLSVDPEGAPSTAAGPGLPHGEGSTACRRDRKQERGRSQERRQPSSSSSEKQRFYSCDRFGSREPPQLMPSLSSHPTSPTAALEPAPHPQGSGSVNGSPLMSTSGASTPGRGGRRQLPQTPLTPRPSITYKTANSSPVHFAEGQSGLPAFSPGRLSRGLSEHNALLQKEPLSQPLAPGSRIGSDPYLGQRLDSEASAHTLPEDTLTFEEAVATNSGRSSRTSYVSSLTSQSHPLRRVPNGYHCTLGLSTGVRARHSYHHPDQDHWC
Sequence of N-type calcium channels (O08532 25-956 partner limits assumed): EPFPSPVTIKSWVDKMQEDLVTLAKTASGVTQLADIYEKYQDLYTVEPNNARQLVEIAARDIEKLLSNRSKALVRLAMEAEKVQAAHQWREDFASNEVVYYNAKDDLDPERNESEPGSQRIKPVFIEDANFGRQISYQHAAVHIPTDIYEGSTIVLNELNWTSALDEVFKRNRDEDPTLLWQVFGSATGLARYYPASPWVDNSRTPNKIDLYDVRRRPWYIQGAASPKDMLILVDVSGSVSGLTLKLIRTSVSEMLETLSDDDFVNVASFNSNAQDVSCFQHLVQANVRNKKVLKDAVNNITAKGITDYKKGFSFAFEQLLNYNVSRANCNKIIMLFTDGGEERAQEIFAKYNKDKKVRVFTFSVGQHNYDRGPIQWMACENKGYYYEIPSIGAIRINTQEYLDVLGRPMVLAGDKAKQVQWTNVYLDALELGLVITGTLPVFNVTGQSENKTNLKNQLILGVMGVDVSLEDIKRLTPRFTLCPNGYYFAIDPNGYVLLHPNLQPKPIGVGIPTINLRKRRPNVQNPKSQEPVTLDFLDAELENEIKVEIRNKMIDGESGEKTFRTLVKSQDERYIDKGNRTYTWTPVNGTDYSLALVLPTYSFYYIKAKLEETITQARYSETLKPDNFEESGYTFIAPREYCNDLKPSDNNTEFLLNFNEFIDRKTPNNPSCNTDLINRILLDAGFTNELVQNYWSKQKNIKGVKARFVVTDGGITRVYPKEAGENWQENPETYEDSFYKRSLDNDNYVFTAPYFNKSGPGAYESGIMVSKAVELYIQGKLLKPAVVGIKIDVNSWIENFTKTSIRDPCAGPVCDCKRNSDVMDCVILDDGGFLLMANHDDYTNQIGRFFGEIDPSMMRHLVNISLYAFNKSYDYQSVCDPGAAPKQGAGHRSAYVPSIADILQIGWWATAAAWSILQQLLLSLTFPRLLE
Sequence of N-type calcium channels (O08532 957-1103 partner limits assumed): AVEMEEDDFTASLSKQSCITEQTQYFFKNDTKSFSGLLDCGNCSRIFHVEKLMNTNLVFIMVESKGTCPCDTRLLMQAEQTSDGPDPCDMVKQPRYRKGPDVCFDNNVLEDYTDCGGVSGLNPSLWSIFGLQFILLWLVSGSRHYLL
Sequence of N-type calcium channels (P54285 whole entry partner): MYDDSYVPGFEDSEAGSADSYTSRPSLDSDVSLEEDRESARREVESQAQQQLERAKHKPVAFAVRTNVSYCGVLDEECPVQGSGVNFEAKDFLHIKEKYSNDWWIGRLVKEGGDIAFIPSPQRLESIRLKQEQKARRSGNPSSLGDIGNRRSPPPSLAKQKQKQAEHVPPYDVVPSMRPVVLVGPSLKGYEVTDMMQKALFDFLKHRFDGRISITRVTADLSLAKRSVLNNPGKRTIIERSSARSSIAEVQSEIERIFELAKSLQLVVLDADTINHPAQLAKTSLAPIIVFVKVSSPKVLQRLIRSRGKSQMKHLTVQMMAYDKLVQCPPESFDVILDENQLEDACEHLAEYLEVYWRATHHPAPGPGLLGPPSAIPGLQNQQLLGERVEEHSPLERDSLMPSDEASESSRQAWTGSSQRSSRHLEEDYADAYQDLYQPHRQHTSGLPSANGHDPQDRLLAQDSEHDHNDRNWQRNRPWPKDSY

Sequence: YGRKKRRQRRRKLSSIESDV [Tat-NR2B9c, reference compound]
- additional inhibition once N-channels are blocked by omega conotoxin (1 μM): no additional inhibition
